This passage reports Kd results from PMC3475183 (Cell, 2011).

The Kd is the concentration at which binding is half-saturated. A high value points to weaker binding.

In the assay the target is 3BP2 Tankyrase targeting peptide. Description: fluorescence polarisation.

B1: recombinant N-terminal region of TNKS2 containing all five ARCs (domain or fragment)
chain: AVEPAARELFEACRNGDVERVKRLVTPEKVNSRDTAGRKSTPLHFAAGFGRKDVVEYLLQNGANVQARDDGGLIPLHNACSFGHAEVVNLLLRHGADPNARDNWNYTPLHEAAIKGKIDVCIVLLQHGAEPTIRNTDGRTALDLADPSAKAVLTGEYKKDELLESARSGNEEKMMALLTPLNVNCHASDGRKSTPLHLAAGYNRVKIVQLLLQHGADVHAKDKGDLVPLHNACSYGHYEVTELLVKHGACVNAMDLWQFTPLHEAASKNRVEVCSLLLSYGADPTLLNCHNKSAIDLAPTPQLKERLAYEFKGHSLLQAAREADVTRIKKHLSLEMVNFKHPQTHETALHCAAASPYPKRKQICELLLRKGANINEKTKEFLTPLHVASEKAHNDVVEVVVKHEAKVNALDNLGQTSLHRAAYCGHLQTCRLLLSYGCDPNIISLQGFTALQMGNENVQQLLQEGISLGNSEADRQLLEAAKAGDVETVKKLCTVQSVNCRDIEGRQSTPLHFAAGYNRVSVVEYLLQHGADVHAKDKGGLVPLHNACSYGHYEVAELLVKHGAVVNVADLWKFTPLHEAAAKGKYEICKLLLQHGADPTKKNRDGNTPLDLVKDGDTDIQDLLRGDAALLDAAKKGCLARVKKLSSPDNVNCRDTQGRHSTPLHLAAGYNNLEVAEYLLQHGADVNAQDKGGLIPLHNAASYGHVDVAALLIKYNACVNATDKWAFTPLHEAAQKGRTQLCALLLAHGADPTLKNQEGQTPLDLVSADDVSALLTAAMPP
Take B1: binding was put at a Kd of 0.5 ± 0.1 µM.
